In PMC3224728, “Identification of target genes of transcription factor activator protein 2 gamma in breast cancer cells”:

Key:
[1] = biological target: T1, GST-AP-2γ (UniProt Q92754 1-450); assay: EMSA; 10 mM HEPES pH 8.0, 60 mM KCl, 4 mM MgCl2, 0.1 mM EDTA, 100 μg/ml BSA, 0.25 mM DTT, 10% glycerol, 37°C 20 min; 5 pmol probe, 50 pmol protein in 15 μl; 6% native PAGE; settings: protein: recombinant; tags: GST (N-terminal, pGEX-4T-2); chain copies: 2; label: 32P 5' end of forward strand; blunt
[2] = biological target: T1, GST-AP-2γ; assay: competition; 10- or 50-fold excess unlabeled vs wild-type HPSE-648, CDH2-854, IGSF11-286 probes; markedly decreased binding; 10 mM HEPES pH 8.0, 60 mM KCl, 4 mM MgCl2, 0.1 mM EDTA, 100 μg/ml BSA, 0.25 mM DTT, 10% glycerol, 37°C 20 min; 5 pmol probe, 50 pmol protein in 15 μl; 6% native PAGE; settings: protein: recombinant; tags: GST (N-terminal, pGEX-4T-2); chain copies: 2; blunt

T1 sequence (Q92754 whole entry): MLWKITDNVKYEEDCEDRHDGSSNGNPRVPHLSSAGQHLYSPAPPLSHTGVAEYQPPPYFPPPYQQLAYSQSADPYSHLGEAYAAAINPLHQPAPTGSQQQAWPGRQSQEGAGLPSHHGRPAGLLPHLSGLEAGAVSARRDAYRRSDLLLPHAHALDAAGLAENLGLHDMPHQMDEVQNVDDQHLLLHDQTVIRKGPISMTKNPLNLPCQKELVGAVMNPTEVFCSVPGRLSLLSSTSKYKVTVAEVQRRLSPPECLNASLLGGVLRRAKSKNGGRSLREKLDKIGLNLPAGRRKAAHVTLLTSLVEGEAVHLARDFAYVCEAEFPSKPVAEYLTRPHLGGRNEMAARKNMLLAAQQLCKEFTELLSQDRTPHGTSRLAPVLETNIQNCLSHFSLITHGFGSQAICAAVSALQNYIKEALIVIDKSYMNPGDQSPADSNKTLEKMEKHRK

B1: WtR1-15-286/IGSF11 (dsDNA)
DNA 1: TTTGCTGCCTTTGTCCTGTAG
DNA 2: CTACAGGACAAAGGCAGCAAA
- binding result [1]: binds

B2: WtR4-28-854/CDH2 (dsDNA)
DNA 1: ATGCGACCTGCAGGCATGCCA
DNA 2: TGGCATGCCTGCAGGTCGCAT
- binding result [1]: binds

B3: WtR3-36-676/HPSE (dsDNA)
DNA 1: AATGTGGCCCTGGTCACTTAG
DNA 2: CTAAGTGACCAGGGCCACATT
- binding result [1]: no binding

B4: HMT (dsDNA)
DNA 1: AACGGACCGCCCGCGGCCCGT
DNA 2: ACGGGCCGCGGGCGGTCCGTT
- binding result [2]: binds

B5: MtR3-36-676/HPSE (dsDNA)
DNA 1: AATGTGATTCTGATCACTTAG
DNA 2: CTAAGTGATCAGAATCACATT
- binding result [1]: no binding

B6: WtR3-36-648/HPSE (dsDNA)
DNA 1: AAAAGTGCCCAGAGCCCATGA
DNA 2: TCATGGGCTCTGGGCACTTTT
- binding result [1]: binds

B7: MtR3-36-648/HPSE (dsDNA)
DNA 1: AAAAGTATTCAGGGCCCATGA
DNA 2: TCATGGGCCCTGAATACTTTT
- binding result [1]: no binding

B8: MtR4-28-854/CDH2 (dsDNA)
DNA 1: ATGCGACCCGCAAATATGCCA
DNA 2: TGGCATATTTGCGGGTCGCAT
- binding result [1]: no binding

B9: MtR1-15-286/IGSF11 (dsDNA)
DNA 1: TTTGCTATTTTTATCCTGTAG
DNA 2: CTACAGGATAAAAATAGCAAA
- binding result [1]: no binding
